Publication PMC12658125, “Oligomerisation of Ku from Mycobacterium tuberculosis promotes DNA synapsis” (Nature Communications, 2025)

How the values were obtained:
[1] = target: T1, Ku-Mtb (Mycobacterium tuberculosis, UniProt P9WKD9 1-273); assay: EMSA; conditions: protein: recombinant; tags: His (Ni-NTA purified, pET45b); chain copies: 2; label: 5' FAM on strand 1; 3' overhang 20 nt on strand 1
T1 sequence: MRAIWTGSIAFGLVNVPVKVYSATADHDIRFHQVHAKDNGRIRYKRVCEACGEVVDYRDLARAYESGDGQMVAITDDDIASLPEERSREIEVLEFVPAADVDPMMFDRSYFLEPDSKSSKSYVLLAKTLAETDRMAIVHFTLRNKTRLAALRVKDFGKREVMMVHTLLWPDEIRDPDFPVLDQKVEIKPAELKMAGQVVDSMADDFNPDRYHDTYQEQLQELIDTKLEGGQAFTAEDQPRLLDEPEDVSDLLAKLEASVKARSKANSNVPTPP

[2] = target: T1, Ku-Mtb; assay: FIDA (hydrodynamic radius); conditions: protein: recombinant; tags: His (Ni-NTA purified, pET45b); chain copies: 2; label: 5' FAM on strand 1; 3' overhang 20 nt on strand 1
[3] = target: T1, Ku-Mtb; assay: EMSA; 5 mM MgCl2; conditions: protein: recombinant; tags: His (Ni-NTA purified, pET45b); chain copies: 2; blunt

B1: FAM-DNA, 32 bp with 3' 20dT overhang (mixed)
DNA 1: GGAATGTAACCATCGTTGGTCGGCAGCAGGGCTTTTTTTTTTTTTTTTTTTT
DNA 2: GCCCTGCTGCCGACCAACGATGGTTACATTCC
binding result [1]: binds
binding result [2]: binds

B2: Blunt-DNA 50 bp (dsDNA)
DNA 1: CCTCTAGACCTGTACTACTCGAGAGATCGATCGACAGACGATGACTTAGC
DNA 2: GCTAAGTCATCGTCTGTCGATCGATCTCTCGAGTAGTACAGGTCTAGAGG
binding result [3]: binds
